The results in this text go back to PMC8631079.

By stoichiometry N is commonly meant the number of molecules, sites or subunits per partner or assembly.

Test [1] deals with GH10 (1) from PUL15 of Prevotella copri DSM18205 (extracellular endo-1,4-β-xylanase) (Prevotella copri DSM 18205). Kind of test: SEC; HiPrep 16/60 Sephacryl S-300 HR column, 0.5 mL/min, sodium phosphate 50 mM, NaCl 150 mM, pH 7.0; calibrated with molecular weight standards 20-700 kDa; native mass compared with the theoretical mass. A general note: SEC sorts molecules by how far they enter the pores of the column.

Test [2] addresses GH43_1 from PUL15 of Prevotella copri DSM18205 (intracellular β-xylosidase / exo-β-xylanase) (Prevotella copri DSM 18205). The description is as above.

“GH10 (1) from PUL15 of Prevotella copri DSM18205 (extracellular endo-1,4-β-xylanase) (enzyme)” gave a stoichiometry N in test [1] of 2.

In the case of “GH43_1 from PUL15 of Prevotella copri DSM18205 (intracellular β-xylosidase / exo-β-xylanase) (enzyme)”, the stoichiometry N in test [2] was 2.
